Literature values as cited in PMC12153800.

Target: FZD10 (Homo sapiens) (UniProt Q9ULW2)
Assay: NanoBiT/BRET

Chain of Wnt3a (P56704 19-352): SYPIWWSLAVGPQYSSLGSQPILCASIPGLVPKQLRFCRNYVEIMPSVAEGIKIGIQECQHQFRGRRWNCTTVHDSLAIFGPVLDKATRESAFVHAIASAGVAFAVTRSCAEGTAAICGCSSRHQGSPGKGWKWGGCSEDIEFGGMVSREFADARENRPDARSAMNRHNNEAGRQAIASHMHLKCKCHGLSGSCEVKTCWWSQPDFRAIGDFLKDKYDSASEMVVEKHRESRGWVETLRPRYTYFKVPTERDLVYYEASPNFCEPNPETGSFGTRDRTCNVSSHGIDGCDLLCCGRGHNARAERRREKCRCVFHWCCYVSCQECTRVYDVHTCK
Chain of FZD10 (Homo sapiens) (Q9ULW2 21-581): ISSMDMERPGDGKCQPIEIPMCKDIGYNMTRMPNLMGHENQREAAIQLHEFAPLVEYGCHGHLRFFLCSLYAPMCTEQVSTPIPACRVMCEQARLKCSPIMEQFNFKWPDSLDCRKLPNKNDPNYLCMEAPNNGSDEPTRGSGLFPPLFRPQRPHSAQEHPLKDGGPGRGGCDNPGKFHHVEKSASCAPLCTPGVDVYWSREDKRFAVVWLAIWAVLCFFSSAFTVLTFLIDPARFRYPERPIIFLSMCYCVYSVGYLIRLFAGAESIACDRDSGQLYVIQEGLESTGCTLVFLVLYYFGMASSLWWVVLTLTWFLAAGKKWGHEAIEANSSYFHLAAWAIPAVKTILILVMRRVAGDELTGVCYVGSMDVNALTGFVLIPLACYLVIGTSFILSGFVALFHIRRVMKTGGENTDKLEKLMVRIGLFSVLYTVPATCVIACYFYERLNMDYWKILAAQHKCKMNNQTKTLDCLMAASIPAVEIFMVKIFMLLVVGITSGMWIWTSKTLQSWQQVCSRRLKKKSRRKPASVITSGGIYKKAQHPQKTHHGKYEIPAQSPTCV

Question: With Wnt3a (from UniProt P56704) as the substance, how does the Kd read?
Answer: 4.3 nM
